These results are taken from article PMC8437784 (The Journal of Biological Chemistry, 2020).

As a reminder, the stoichiometry N is a count of units in the complex or per binding partner.

Sequences and labels used below:
B3: Recombinant N-terminal His6-tagged TRF1 (from human) (natural protein, UniProt P54274 1-439, looked up)
chain: MAEDVSSAAPSPRGCADGRDADPTEEQMAETERNDEEQFECQELLECQVQVGAPEEEEEEEEDAGLVAEAEAVAAGWMLDFLCLSLCRAFRDGRSEDFRRTRNSAEAIIHGLSSLTACQLRTIYICQFLTRIAAGKTLDAQFENDERITPLESALMIWGSIEKEHDKLHEEIQNLIKIQAIAVCMENGNFKEAEEVFERIFGDPNSHMPFKSKLLMIISQKDTFHSFFQHFSYNHMMEKIKSYVNYVLSEKSSTFLMKAAAKVVESKRTRTITSQDKPSGNDVEMETEANLDTRKSVSDKQSAVTESSEGTVSLLRSHKNLFLSKLQHGTQQQDLNKKERRVGTPQSTKKKKESRRATESRIPVSKSQPVTPEKHRARKRQAWLWEEDKNLRSGVRKYGEGNWSKILLHYKFNNRTSVMLKDRWRTMKKLKLISSDSED

Series [1] deals with TRF1 (human, UniProt P54274 1-439). The series is described as follows: EMSA.
The target of series [2] is T1, TIN2S (UniProt Q9BSI4-2 1-354).
T1 sequence: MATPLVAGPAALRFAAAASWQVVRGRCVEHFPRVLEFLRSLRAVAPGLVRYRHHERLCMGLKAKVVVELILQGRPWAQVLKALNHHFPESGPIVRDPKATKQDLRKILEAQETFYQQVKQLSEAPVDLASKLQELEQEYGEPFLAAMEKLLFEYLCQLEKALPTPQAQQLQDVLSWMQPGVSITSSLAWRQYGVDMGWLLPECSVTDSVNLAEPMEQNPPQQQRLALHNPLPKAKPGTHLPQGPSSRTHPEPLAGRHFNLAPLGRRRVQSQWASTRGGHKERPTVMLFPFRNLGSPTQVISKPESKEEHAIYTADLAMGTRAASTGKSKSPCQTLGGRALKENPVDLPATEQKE
As to the kind of experiment: EMSA.

For series [3], the target named is T2, TIN2L (UniProt Q9BSI4 1-451).
T2 sequence: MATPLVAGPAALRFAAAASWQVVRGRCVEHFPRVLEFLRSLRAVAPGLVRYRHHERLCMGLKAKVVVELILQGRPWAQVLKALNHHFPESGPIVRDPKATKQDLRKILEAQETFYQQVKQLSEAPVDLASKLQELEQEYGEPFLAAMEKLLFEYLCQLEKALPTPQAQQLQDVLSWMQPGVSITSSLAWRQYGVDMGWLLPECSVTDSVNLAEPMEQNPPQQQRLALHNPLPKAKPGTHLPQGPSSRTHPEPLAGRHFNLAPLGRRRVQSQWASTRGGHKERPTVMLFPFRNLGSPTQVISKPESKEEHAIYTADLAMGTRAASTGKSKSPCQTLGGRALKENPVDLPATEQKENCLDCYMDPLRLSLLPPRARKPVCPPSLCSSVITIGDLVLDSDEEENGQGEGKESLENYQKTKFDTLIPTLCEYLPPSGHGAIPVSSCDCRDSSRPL
As to the kind of experiment: EMSA. (Mobility shift assays separate free from complexed probe on a gel.)

The target in series [4] is TRF1;TIN2L (human;human?, UniProt P54274;Q9BSI4 1-439;1-451, |). The series is described as follows: EMSA.
Series [5] deals with TRF1;TIN2S (human;human?, UniProt P54274;Q9BSI4-2 1-439;1-354, |). As to the kind of experiment: EMSA.
Series [6] has as its target B3. The series is described as follows: DNA tightrope assay.
For series [7], the target named is T3, Recombinant N-terminal His6-tagged TRF1 (from human) (human), P54274.
T3 chain: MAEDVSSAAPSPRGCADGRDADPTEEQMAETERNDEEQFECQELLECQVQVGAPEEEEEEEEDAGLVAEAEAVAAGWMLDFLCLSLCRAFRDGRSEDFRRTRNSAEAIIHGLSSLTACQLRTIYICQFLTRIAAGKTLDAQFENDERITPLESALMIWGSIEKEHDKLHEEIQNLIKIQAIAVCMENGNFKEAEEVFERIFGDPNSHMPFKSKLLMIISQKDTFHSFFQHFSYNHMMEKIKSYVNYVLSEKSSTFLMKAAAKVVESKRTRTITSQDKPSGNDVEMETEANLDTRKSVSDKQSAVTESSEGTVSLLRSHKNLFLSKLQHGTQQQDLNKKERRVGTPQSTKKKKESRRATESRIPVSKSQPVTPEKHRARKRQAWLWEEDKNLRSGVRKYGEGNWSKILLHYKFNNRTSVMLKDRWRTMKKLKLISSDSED
As to the kind of experiment: AFM volume analysis. As to conditions: remark: other sources report otherwise.

Series [8] concerns the target T4, N-terminal HA-tagged TIN2L (HA-TIN2L, 1-451 aa) (human, UniProt Q9BSI4-1 1-451).
T4 sequence (looked up): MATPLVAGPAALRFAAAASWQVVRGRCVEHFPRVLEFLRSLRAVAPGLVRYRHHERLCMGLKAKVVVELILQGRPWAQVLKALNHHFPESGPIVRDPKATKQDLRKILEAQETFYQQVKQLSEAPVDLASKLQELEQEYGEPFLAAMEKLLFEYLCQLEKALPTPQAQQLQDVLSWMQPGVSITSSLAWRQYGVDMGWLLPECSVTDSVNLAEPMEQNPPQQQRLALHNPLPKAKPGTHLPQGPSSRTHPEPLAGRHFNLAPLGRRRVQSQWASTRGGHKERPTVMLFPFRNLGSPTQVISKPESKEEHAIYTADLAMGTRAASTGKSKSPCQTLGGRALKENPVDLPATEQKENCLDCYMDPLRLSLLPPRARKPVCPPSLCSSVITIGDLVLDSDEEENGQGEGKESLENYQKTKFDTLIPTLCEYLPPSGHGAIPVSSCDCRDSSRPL
The series is described as follows: DNA tightrope assay.

B1: 48 bp telomeric dsDNA, 3 TTAGGG (dsDNA)
DNA 1: TTAGGGTTAGGGTTAGGGATGTCCAGCAAGCCAGAATTCGGCAGCGTA
DNA 2: TACGCTGCCGAATTCTGGCTTGCTGGACATCCCTAACCCTAACCCTAA
B1: the binding result in series [1] is listed as “binds”; in series [2], “no binding”; in series [3], “no binding”; in series [4], “binds”; in series [5], “binds”.

B2: N-terminal HA-tagged TIN2S (HA-TIN2S, 1-354 aa) (natural protein, human, UniProt Q9BSI4-2 1-354, looked up)
chain: MATPLVAGPAALRFAAAASWQVVRGRCVEHFPRVLEFLRSLRAVAPGLVRYRHHERLCMGLKAKVVVELILQGRPWAQVLKALNHHFPESGPIVRDPKATKQDLRKILEAQETFYQQVKQLSEAPVDLASKLQELEQEYGEPFLAAMEKLLFEYLCQLEKALPTPQAQQLQDVLSWMQPGVSITSSLAWRQYGVDMGWLLPECSVTDSVNLAEPMEQNPPQQQRLALHNPLPKAKPGTHLPQGPSSRTHPEPLAGRHFNLAPLGRRRVQSQWASTRGGHKERPTVMLFPFRNLGSPTQVISKPESKEEHAIYTADLAMGTRAASTGKSKSPCQTLGGRALKENPVDLPATEQKE
B2: the binding result in series [6] is “binds”.
As to B3, the stoichiometry N in series [7] was 2. Moreover, the binding result in series [8] is listed as “binds”.
